The record followed here is patent US20130123471A1.

The target in assay [1] is anti-CEA humanized chimeric antibody. The experiment in a line: direct ELISA: chimeric antibody (100 ng/ml) on coated CEA, detected with goat-anti-mouse IgG Fc-HRP (background level). On the technique in general: An ELISA detects its analyte on a solid surface through an enzyme-linked reagent.
Assay [2] addresses human CEA antigen (human) (UniProt P06731). The experiment in a line: ELISA, CEA coating, sample 100 ng/ml, goat-anti-human IgG Fc-HRP (background level).
Sequence of UniProt P06731 (P06731 35-685 limits assumed): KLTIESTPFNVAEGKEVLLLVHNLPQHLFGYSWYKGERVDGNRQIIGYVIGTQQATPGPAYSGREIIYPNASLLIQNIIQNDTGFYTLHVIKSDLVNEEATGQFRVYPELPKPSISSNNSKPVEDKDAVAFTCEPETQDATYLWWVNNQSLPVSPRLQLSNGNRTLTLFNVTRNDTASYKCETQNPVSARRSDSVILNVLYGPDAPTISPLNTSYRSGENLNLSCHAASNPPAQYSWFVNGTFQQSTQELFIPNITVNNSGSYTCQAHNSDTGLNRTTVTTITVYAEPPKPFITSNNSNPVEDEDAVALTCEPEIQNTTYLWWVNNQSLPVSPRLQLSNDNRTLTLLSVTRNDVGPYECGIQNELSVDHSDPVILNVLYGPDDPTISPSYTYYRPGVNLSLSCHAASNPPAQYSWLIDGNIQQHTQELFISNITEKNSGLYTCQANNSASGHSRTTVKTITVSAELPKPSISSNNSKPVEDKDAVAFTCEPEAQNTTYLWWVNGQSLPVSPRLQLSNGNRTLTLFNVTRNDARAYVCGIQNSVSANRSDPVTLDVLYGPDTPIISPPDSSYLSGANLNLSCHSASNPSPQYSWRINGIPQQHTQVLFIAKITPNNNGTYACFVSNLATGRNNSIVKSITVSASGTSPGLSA
For assay [3] the target is unchanged. Kind of assay: direct ELISA on coated CEA, 100 ng/ml, goat-anti-mouse IgG Fc-HRP secondary (background level; this secondary does not detect human Ig).
The target is the same in assay [4]. Kind of assay: direct ELISA on coated CEA, 100 ng/ml, goat-anti-human IgG Fc-HRP secondary (background level).
For assay [5] the target is unchanged. Kind of assay: competitive inhibition ELISA on coated CEA, 80 ng human IgG1 against 2.5 ng parent mouse antibody.

Sequence of anti-CEA humanized chimeric antibody (VH, as listed by the source, chain 1 of 2): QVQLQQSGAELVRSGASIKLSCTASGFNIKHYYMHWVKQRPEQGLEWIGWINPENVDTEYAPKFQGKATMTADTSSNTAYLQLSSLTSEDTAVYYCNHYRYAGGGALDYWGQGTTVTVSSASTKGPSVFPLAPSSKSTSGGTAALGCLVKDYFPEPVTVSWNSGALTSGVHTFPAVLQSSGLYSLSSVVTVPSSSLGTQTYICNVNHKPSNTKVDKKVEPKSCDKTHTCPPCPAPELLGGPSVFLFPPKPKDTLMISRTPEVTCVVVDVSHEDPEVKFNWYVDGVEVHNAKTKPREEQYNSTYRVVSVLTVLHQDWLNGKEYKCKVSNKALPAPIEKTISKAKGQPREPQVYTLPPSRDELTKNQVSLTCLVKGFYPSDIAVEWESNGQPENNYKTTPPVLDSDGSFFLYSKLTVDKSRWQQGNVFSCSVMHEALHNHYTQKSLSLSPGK
Sequence of anti-CEA humanized chimeric antibody (VL, as listed by the source, chain 2 of 2): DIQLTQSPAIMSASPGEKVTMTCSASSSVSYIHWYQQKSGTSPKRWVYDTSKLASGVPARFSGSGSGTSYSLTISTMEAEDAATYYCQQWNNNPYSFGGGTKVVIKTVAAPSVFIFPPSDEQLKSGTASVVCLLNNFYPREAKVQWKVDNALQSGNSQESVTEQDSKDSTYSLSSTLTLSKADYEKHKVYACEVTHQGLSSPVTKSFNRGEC

On to “goat-anti-mouse IgG Fc fragment-HRP (antibody)”, for which the OD490 in assay [1] was determined as 0.072 OD490.
With irrelevant antibody human IgG1, the values for the OD490 in assay [2], in assay [3] and in assay [4] were 0.072 OD490, 0.077 OD490 and 0.079 OD490, respectively. The Inhibition rate (%) in assay [5] was -12.8%.
